Measurements reported in the nanobody polyreactivity screen of Harvey et al. (2022).

Assay: yeast display, Sf9 membrane polyspecificity reagent, FACS + sequencing; frameworks hold sequencing errors
Procedure, shortened: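 A synthetic nanobody library was expressed on Saccharomyces cerevisiae BJ5465 by galactose induction for 36–48 hours. The library was stained for 1 hour at 4 °C with 10% biotinylated, detergent-solubilized Sf9 membrane reagent and enriched with streptavidin microbeads before FACS. Low and high (top ~1%) gates were set on anti-HA fluorescence for expression and streptavidin fluorescence for reagent binding, and each polyreactivity label reflects the gate of origin.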

Sequence | polyreactivity (PSR sort gate)
QVQLVESGGGLVQAGGSLRLSCAASGSIFDFYSMGWYRQAPGKERELVAAISRGGSTYYADSVKGRFTISRDNAKNTVYFLMNSLKPEDTGVDYCAARDGVLVSWLWFWCDSPYGYWGQGTQGTVSS | low polyreactivity
QVQLVESGGGLVQAGGSLRLSCAASGFTFYRYAMGWYRQAPGKERELVAAITWSGGSTYYADSVKGRFTISRDNAKNTVYFQMNSLKPEDTAVYYCAASRWIFQVNDYDYWGQGTQGTVSS | high polyreactivity
QVQLVESGGGLVQAGGSLRLSCAASGSIFGLYAMGWYRQAPGKERELVAAINWNGGDTYYADSVKGRFTISRDYAKNTVYLQMNSLKPEDTAVYYCAAEQYRYGIRRRHYDYWGQGTEVTVSS | low polyreactivity
QVQLVESGGGLVQAGGSLRLSCAASGRNIYTNAMGWYRQAPGKERELVAAINRSGGITYYADSVKGRFTISRDNAKNTVDLQMNSLKPEDTAVYYCAKDYSWASYNHDYWGQGTQVTVSS | low polyreactivity
QVQLVESGGGLVQAGGSLRLSCAASGRTFAPNAMGWYRQAPGKEREMVAAISWSGTSTYYADSVKGRFTISRDNAKNTVYLQMNSLKPEDTAVYYCAADLEGSVGSPLTYDYWGQGTQVTVSS | low polyreactivity
QVQLVESGGALVQAGGSLRLSCAASGRIFRAYAMGWYRQAPGKERELVAAISRSGGSTYYADSVKGRFTISRDNAKNTVYLQMNSLKPEDTAVYYCAAEYYFIDTGEYDYWGQGTQVSVSS | high polyreactivity
QVQLVESGGGLVQAGGSLRLSCAASGRILYSYAMGWYRQAPGKEREFVAAIRRSGGSTYYADSVKGRFTISRDNAKNTVYLQMNSLKPEDTAVYYCAAGRRYSGSYDYWGQGTQVTVSS | high polyreactivity
QVQLVESGGGLVQAGGRLRLSCAASGFTFHNNVMGWYRQAPGKERELVATISKSGGSTYYADSVKGRFTISRDHAKNTVYLQMNSLKPEDTAVYYCARRYRDYGRYGYWGQGTQVTVSS | high polyreactivity
QVQLVESGGGLVQAVGSLRLSCAASGSTFRGYTMGWYRQEPGKERELVSAINWSGGDTYYADSVKGRFTISRDNAKNTVYLQMNSLKPEDTAVYYCNTRHTYPQSFILRRDYWGQGTQVTVSS | low polyreactivity
QVQLVESGGGLVQAGGSLRLSCAASGITFTIYGMGWYRQATGKERELVAVISRRGGSTYYADSVKGRFTISRDNAKNTVYLQMNSLKPEDTAFYYCNTRTQGAKQYTGYDYWGQGTQVTVSS | high polyreactivity
QVQLVESGGGLVQAGGSLRLSCAASGGTFTGYAMGWYRQAPGKERELVAAIRSRGGSTYYADSVKGRFTISRDNAKNTVYLQLNSLKPEDTAFYYCNAVSRFSYGYDYWGQGTQVSVSS | high polyreactivity
QVQLVESGGGLVQAGGSLRLSCAASGSTFRVYAMGWYRQAPGKEREFVAAITGSDGSTYYADSVKGRFTISRDNAKNTVYLQMNSLKPEDTAVYYCAADYYLQNYETGYGYWGQGTQVTVSS | low polyreactivity
QVQLVESGGGLEQAGGSLRLSCAASGLTFSVYAMGWYRQAPGKERELVAGITSSGGDTYYADSVKGRLTISRDNAKNTVYLQMNSLKPEDTAVYYCNAKYRTFVSKHDYWGQGTQVTVSS | low polyreactivity
QVQLLESGGGLVQAGGSLRLSCAASGYIFLRNAMGWYRQAPGKERELVAAIRRTGGSTYYADSVKGRFTISRDNAKNTVYLQMNSLKPEDTAVYYCAKRSYTGYEYWGQGTQVTVSS | low polyreactivity
QVQLVESGGGLVQAGGSLRLSCAASGRIFIANTMGCYRQAPGKERELVAAITQRGDSTYYADSVKGRFTISRDNAKNTVYLQMNSLKPEDTAVYYCAARYYLSSYVRYNYWGQGTQVTVSS | high polyreactivity
QVQLVESGAGIVQAGGSHRLSCAASGFIFFGYAAMEWYRQAPGKERELVAAISWSGGSTYYADSVKGRFTISRDHAKYTVYLQMNSLKPEDTAVYYCNAVYLKLYPWLDYWGQVTQVTVSS | low polyreactivity
QVQLVESGGGLVQAGGSLRLSCAASGSIFAGNTMGWSRQAPGKEREFVASIRSSSGSTYYADSVKGRFTISRDNAKNTVYLQMNSLKPEDTAVYYCARVAPASGVRWYYYWGQGTQVTVSS | high polyreactivity
QVQLVESGGGLVQAGGSLRLSCAASGGILDTYAMGWDRQAPGKERELVAAITSGGNTNYADSVKGRFTISRDNAKNTFYLQMNSLKPEDTAVYFCNVVSWYYFFRPWEYDYWGQGTQVTVSS | low polyreactivity
QVQLVESGGGLVQAGGSLRLSCAASGSIFFLYAMGWYRQAPGKERELVAAISRDGRTNYADSVKGRFTISRDNAKNTVYLQMNSLKPEDTAVYYCAKDGNHPGAVGYGYWGQGTQVTVSS | low polyreactivity
QVQLEESGGGLVQAGGSLRLTCAASGRTFSSYTMGWSRQAPGKERELVASITNNGGSTYYADSVKGRFTISRDNAKNTVYLQMNSLKPEDTAVYYCNKDPWYVFHPRGLFLFDYWGQGTQVTVSS | low polyreactivity
QVQLVESGGGLVQAGGSLRLSCAASGFIFPPYTMGWYRQAPGKERELVAAINSGGSTYYADSVKGRFTISRDNAKNTVYLPMNSLKPEDTAVYYCAADTDRALAHFDYWGQGTQVTVSS | low polyreactivity
QVQLVESGGGLVQAGGSLRLSCAASGIIFTDYAMGWYRQAPGKERELVAAISSGGGSTYYADSVKGRFTNSRDYAKNTVYLQMNSLKPEDTAVYYCAAQTSGSYGFDHWGQGTQVTVSS | high polyreactivity

Sequence | polyreactivity (PSR sort gate)
QVQLVESGGGLVQAGGSLRLSCAASGRTFYKYGMGWYRQAPGKERELVASISSGGNTYYADSVKGRFTISRDNAKNTVYLQMNSLKPEDTAVYYCNAGYWAKFDYWGQGTQVTVSS | high polyreactivity
QVQLVESGGGLVQAGGSLRLSCAASGSTFVGYAMGWYRQAPGKEMEFVAAITRGGSTNYADSVKGRFTISRDNAKNTVYLQMNSLKPEDTAVYYCAARDRREGFIFDYWGQGTQVTVSS | low polyreactivity
QVQLVESGGGLVQAGGSLRLSCAASGFTIGSNVMGWYRQAPGKERELVAAISSRGGSTYYADSVKGRFTISRDNAMNTVYLQMNSLKPEDTAVYDCAADAYYRGGWGDYWGQGTQVTVSS | high polyreactivity
QVQLLESGGGLVQAGGRHRLSCAASGRTFPGNAMGWYRKAPGKERELVAAISWSVDRTYYADSVKGRFTISRDNAKNTVYLQMNSLKPEDTSVYYCAAVEWWSSSLRMYYWGQGTQETVSS | low polyreactivity
QVQLVESGGGLVQAGGSLRLSCAASGSIFVSYAMGWYRQAPGKERELVAAITRSGGSTYYADSVKGRFTISRDNAKNTVYLQMNSLKPEDTAVYYCAARSYLGAYRRYYWGQGTQVTVSS | high polyreactivity
QVQLVESGGGLVQAGGSLRLSCAASGSIFYPNAMGWYRQAPGKERELVAVITGGATTYYADSVKGRFTISRDNAKNTVYLQMNSLKPEDTAVYYCAADSAENVYRGYYWGQGTQVTVSS | low polyreactivity
QVQLVESGGGLVQAGGSLRLSCAASGYTFTSNAMGWYRQAPGKERELVADISTGVDSTYYADSVKGRFTISRDNAKNTVYLQMNSLKPEDTAVYYCNADILVAWYDEPFDYWGQGTQVTVSS | low polyreactivity
QVQLVESGGGLVQAGGSLRLSCAASGSTFTGYAMGWYRPAPGKESELVAAISISGGRTFYADSVKGRFTISRDNAKNTVYLQMNSLKPEDTSVYYCAVYRRGGVEAFLYWGQGTQVTVSS | high polyreactivity
QVQLVESGGGIVQAGGTLRLSCAASGSTFFYYVMGWYRQAPGKERELVAAITSSGGGTYYADSVKGRFTISRDNAKNTVYLQMKSLKPEDTAVYYCAKPVWWRDYRHGGRFGYWGQGTQVTVSS | low polyreactivity
QVQLVESGGGLVQAGGSLRLSCAASGRIFLRNAMGWFRQAPGKERELVAAIRGSGGSTYYADSVKRRFTISRDHAKTTVYLQTNSLKPEDTPVYYCAVASYYRYSHTYGYWGQGTQVTVSS | high polyreactivity
QVQLVVSGGGLVQAGGSLRLSCAASGSLFTPYAMGWYRQAPGKERELVATISWSGGRTYYADSVKGRFTISRDNAKNPVYLQMNSLKPEDTAVYYCAARGYSSEYDYWGQGTQVTVSS | high polyreactivity
QVQLVESGGGLVQAGGSLRLSCAASGYIFPGNAMGWYRQAPGKERELVAAISSRGGRTYYADSVKGRFTISRDNAKNTVYLQMNSLKPEDTAVYYCAKGGKVGSTLEYDYWGQGTQVTVSS | high polyreactivity
QVQLVESGGGLVQAGGSLRLSCAASGRTFYVYTMGWYRQAPGKERELVAANTSGGSTNYADSVKGRFTISRDNAKNTVYLQMNSLKPEDTAVYYCAARVSTVFKRYYYWGQGTQVTVSS | high polyreactivity
QVQLVESGGGLVQAGGILRLSCAASGFTFSWYAMGWYRQAPGKERELVAAINADGGTTYYADSVKGRFTISRDNAKNTVYLQMNSLKPEDTAVYYCAAELSVDKYDYWGQGTQVTVSS | low polyreactivity
QVQLVESGGGLVQAGGSLRLSCAASGNIFDSNAMGWYRQAPGKERELVAAITWSGGSTYYADSVKGRFTISRDNAKNTVYLQMNSLKPEDTAVYYCNAVRQQRNVPGGQYEFDYWGQGTQVTVSS | high polyreactivity
QVQLVESGGGLVQAGGSLRLSCAASGRTFKYNVMGWYRPAPGKERELVAAISSGGGTNYADSVKGRFTISRDNAKKTVYFQINSLKPEDTAVYYCAAKYAWRLLEMYYWGQGTQVTVSS | low polyreactivity
QVQLVESGGGLVQAGGSLRLSCAASGSTFAPNAMGWYRQAPGKERELVAAISRGGSTYYADSVKGRFTISRDNAKNTVYLQMNSLKPEDTAVYYCAVYKFHYGYVWYPYDYWGQGTQVTVSS | high polyreactivity
QVQLVESGGGLVQAGGSLRLSCAASGRTFYVYAMGWYRQAPGKERELVASISWIGDDTYYADSVKGRFTISRDNAKNTVYLQMNSLKPEDTAVYYCAVLVLGDYGYEYWGQGTQVTVSS | high polyreactivity
QVQLVESGGGLVQAGGSIRLSCAASGSIFGAYAMGWYRQAPGKERELVATITLRDGSTYYADSVKGRFTSSRDNAKNTVYLQMNSLKPEDTAVYYCATYYSAINYGWSKTILYDYWGQGTQVTVSS | low polyreactivity
QVQLVESGGGLVQAGGSLRLSCAASGFTFYYNAMGCYRQAPGKERELVASISSNGTSTYYADSVKGRFTISRDNAKNTVYLQMNSLKPEDTAVYYCNVDIFDPRTYDYWGQGTQVTVSS | low polyreactivity
QVQLVESGGGLVQAGGSLRLSCAASGRTFVYNAMGWYRQAPGKERELVAAISSGGGTNYADSVKGRFTISRDNAKNTVYLQMNSLKPEDTAVYYCAAGFDGSRHPGFDSWVQGTQVTVSS | low polyreactivity
